{
  "source": "paper PMC6614843",
  "about": "“Stability and sub-cellular localization of DNA polymerase β is regulated by interactions with NQO1 and XRCC1 in response to oxidative stress” (Nucleic Acids Research, 2019)",
  "binders": {"B1": {"name": "NTD-XRCC1(1-151)-His (domain or fragment)", "chain": "MPEIRLRHVVSCSSQDSTHCAENLLKADTYRKWRAAKAGEKTISVVLQLEKEEQIHSVDIGNDGSAFVEVLVGSSAGGAGEQDYEVLLVTSSFMSPSESRSGSNPNRVRMFGPDKLVRAAAEKRWDRVKIVCSQPYSKDSPFGLSFVRFHS", "notes": "N-terminal domain of XRCC1, residues 1-151; human by the plasmid's name (hXRCC1); The name puts the His tag after the fragment; also called N-terminal fragment of XRCC1"}},
  "key": {"[1]": {"target": "Polβ(WT), purified recombinant (human, UniProt P06746 1-335)", "experiment": "SPR; OpenSPR localized SPR (Nicoya); Polβ(WT) or Polβ(T304I) covalently coupled (EDC/NHS) to a carboxyl sensor; XRCC1 injected at 10, 100 nM, 1, 2, 5 and 10 μM; 25 mM HEPES pH 8.0, 150 mM NaCl, 200 mM MgCl2, 0.1% Tween 20, 1 mM TCEP; KD from response versus concentration (affinity model)", "conditions": "both partners purified"}, "[2]": {"target": "Polβ(T304I), purified recombinant (human, UniProt P06746 1-335, T304I)", "experiment": "SPR; OpenSPR localized SPR (Nicoya); Polβ(WT) or Polβ(T304I) covalently coupled (EDC/NHS) to a carboxyl sensor; XRCC1 injected at 10, 100 nM, 1, 2, 5 and 10 μM; 25 mM HEPES pH 8.0, 150 mM NaCl, 200 mM MgCl2, 0.1% Tween 20, 1 mM TCEP; KD from response versus concentration (affinity model)", "conditions": "both partners purified"}},
  "data": [
    {"binder": "B1", "values": [
      {"measurement": "binding result", "setting": "[1]", "value": "binds"},
      {"measurement": "mean fold decrease of binding affinity (KD) against Polβ(WT)", "setting": "[2]", "value": 6.18, "unit": "fold"}
    ]}
  ]
}
